For this assay, the target named is Superfolder-GFP-tagged M-HBsAg (serotype ayw, genotype D3) (Hepatitis B virus (serotype ayw, …)). The experiment in a line: ELISA. Background: In an ELISA, binding on a coated surface is turned into a signal by an enzyme label.

Usually Kd stands for a measure of binding affinity in units of concentration. Read a high Kd as lower affinity.

B1: 3× HA-tagged FabHBC (Fab, V domains shown)
VH: ELQLVESGGGWVQPGGSQRLSCAASGRIFRSFYMSWVRQAPGKGLEWVATINQDGSEKLYVDSVKGRFTISRDNAKNSLFLQMNNLRVEDTAVYYCAAWSGNSGGMDVWGQGTTVSVSS
VL: SYELTQPPSVSVSPGQTVSIPCSGDKLGNKNVCWFQHKPGQSPVLVIYEVKYRPSGIPERFSGSNSGNTATLTISGTQAMDEAAYFCQTWDSTTVVFGGGTRLTVL
Molecule B1 displayed a Kd of 0.103 nM.
